Data published in patent US12012446B2, “Epstein-Barr virus antibodies and uses thereof” (priority 2017, dated 2024).

B1: HB5: murine anti-EBV gp350 mAb, IgG2a κ; SEQ ID NO: 108 / 109; neutralizing (antibody, V domains shown)
VH: AELVRPGASVKISCKAFGYTFTNHNINWVKQRPGQGLDWIGYINPYNDYTSYNQKFKGKATLTVDKSSNTAYMELSSLTSEDSAVYYCARSEGWLRRGAWFAYWGQGTLVTVSAAKTTAPSVYPLAPVCGDTTGSSVTLG
VL: AILSVSPGERVSFSCRASQSIGTSIHWYQQRTNDSPRLLIKYASESISGIPPRFSGSGSGTDFTLSINSVESEDIADYHCQQSNSWPMLTFGAGTKLELKRADAAPTV
modifications: heavy chain mAb HB5; light chain mAb HB5
notes: murine anti-EBV gp350 mAb, IgG2a κ; neutralizing
B2: HB11: murine anti-EBV gp350 mAb, IgG1 κ; SEQ ID NO: 120 / 121; neutralizing (antibody, V domains shown)
VH: PSLVKPSQTLSLTCSVTGDSITSGFWNWIRKFPGNKLEYMGYISYSGSTYYNPSLKSRISITRDTSKNQYYLQLNSVTTEDTATYYCARGNGGNYDWYFDVWGAGTTVTVSSAKTTPPSVYPLAPGSAAQTNSMVTLG
VL: AIMSASLGEKVTMSCRASSSVNFMNWYQQKSDDSPKLLIYYISNLAPGVPARFSGSGSGNSYSLTISGMEGEDAATYYCQQFTSSPSWTFGGGTKLEIKRADAAPTV
modifications: heavy chain mAb HB11; light chain mAb HB11
notes: murine anti-EBV gp350 mAb, IgG1 κ; neutralizing
B3: HB20: murine anti-EBV gp350 mAb, IgG2a κ; SEQ ID NO: 128 / 129; neutralizing (antibody, V domains shown)
VH: ELVKPGASVKLSCKASGYTFTSYWIQWVKQRPGQGLEWIGEINPTNGHTNYNEKFKTKATLTVDKSSSTAYMRLSSLTSEDSAVYYCARNLYYYGRPDYWGQGTSVTVSSAKTTAPSVYPLAPVCGDTTGSSVTLG
VL: SSLSASLGDRVTISCRASQDIGNYLNWYQQKPDGTVKLLIYYTSRLHSGVPSRFSGSGSGTDYSLTISNLEQEDIATYFCQQGNALPPTFGGGTKLEIKRADAAPTV
modifications: heavy chain mAb HB20; light chain mAb HB20
notes: as for B1
B4: m72A1: EBV anti-gp350 neutralizing mouse antibody purified from HB168 hybridoma (ATCC); SEQ ID NO: 100 / 101 (antibody, V domains shown)
VH: PELVKPGTSMKISCKASGSSFTDYTMNWMKQSHGKNLEWIGLINPYNGGTRYNQKFKGKATLTLDKSSSTAYMEVLSLTSEDSAVYYCAGGLRRVNWFAYWGQGTLVSVSAAKTTPPSVYPLAPGSAAQTNSMVTLG
VL: QAVLTQESALTTSPGETVTLTCRSSTGAVTTSNYANWVQEKPDHLFTGLIGGTNNRVPGVPARFSGSLIGDKAALTITGAQTEDEAIYFCVLWHSNHWVFGGGTKLTVL
modifications: heavy chain mAb 72A1; light chain mAb 72A1
B5: h72A1: humanized 72A1 IgG1; heavy and light chain SEQ ID NOs: 180 and 181 (antibody, V domains shown)
VH: EVQLVESGGGLVQPGGSLRLSCAASGSSFTDYTMNWMRQSPGKGLEWIGLINPYNGGTRYADSVKGRATLSLDKSKNTAYLQMNSLRAEDTAIYYCAGGLRRVNWFAYWGQGTLVTVSS
VL: DAQLTQSPILLSASVGDRVTITCRSSTGAVTTSNYANWVQERTNGSFRGLIGGTNNRVPGVPSRFSGSLSGDDATLTISSLQPEDEADYFCVLWHSNHWVFGAGTKVEIKR

Assays:
[1] = test system: EBV gp350 20-mer linear peptides (gp350 regions); type: binding, Epstein-Barr virus; details: 10 μg/ml mAb, 10 μg/ml peptide
Experimental: Forty-five sequential 20-mer linear peptides, covering the whole sequence of gp350 (GenBank: NC_007605.1), with an exception of aa 862-881, were synthesized using a solid phase method and cleaved using a low-high hydrogen fluoride method by the GenicBio, as previously described (58).
The binding of anti-gp350 mAbs to 45 synthesized 20-mer sequential peptides covering the total length of gp350 was analyzed using indirect ELISA as described (58). Briefly, immunoplates were coated with 50 μl of 10 μg/ml EBV gp350 peptides (forty-five 20-mers) diluted in PBS and incubated overnight at 4° C.; 0.5 μg/ml recombinant EBV gp350 ectodomain protein was used as a positive control. After washing three times with washing buffer (PBS containing 0.05% (v/v) Tween 20), plates were blocked with 100 μl washing buffer containing 3% BSA (blocking buffer), incubated for 1 hour at room temperature, and washed as above. Ten μg/ml purified mAbs were added to each well in triplicate and incubated for 2 hours at room temperature. […] The plates were washed as described above, followed by incubation with goat anti-mouse IgG or goat anti-human IgG HRP-conjugated secondary antibody (1:2,000 diluted in PBS) at room temperature for 1 hour. The plates were washed again and the chromogenic substrate ABTS was added. The reaction was stopped using ABTS peroxidase stop solution. The absorbance was read at an optical density of 405 nm using an ELISA plate reader.
The peptide library, consisting of 20-mer peptides, covered the entire gp350 protein, with the exception of AA 862-881 (Table 9).
Purified recombinant gp350 ectodomain was used as a control to validate the binding activity for all of the antibodies used. The overall gp350 sequence was divided into nine different regions consisting of ˜100 AA (FIG. 7).

[2] = molecular target: T1, purified EBV gp350/220 (recombinant EBV gp350 ectodomain) (Epstein-Barr virus, UniProt P03200); test: Indirect ELISA on recombinant EBV gp350 ectodomain; type: binding
T1 construct: purified EBV gp350 ectodomain protein (AA 4-863); purchased Immune Technology Corporation
Experimental: Briefly, immunoplates (Costar 3590; Corning Incorporated) were coated with 50 μl of 0.5 μg/ml recombinant EBV gp350 ectodomain (Immune Technology Corporation) diluted in 1× phosphate buffered saline (PBS, pH 7.4) and incubated overnight at 4° C. After washing three times with 1×PBS containing 0.05% (v/v) Tween 20 (washing buffer), plates were blocked with 100 μl washing buffer containing 2% (w/v) bovine serum albumin (BSA) (blocking buffer) then incubated for 1 h at room temperature and washed as above. 100 μl of hybridoma supernatant or 50 μl of 10 μg/ml purified mAbs was added to each well (in triplicate) and incubated for 2 h at room temperature. […] The plates were washed as described above, followed by incubation with 50 μl of goat anti-mouse IgG HRP-conjugated secondary antibody (1:2,000 diluted in 1×PBS) at room temperature for 1 h. The plates were washed again and 100 μl of chromogenic substrate 2,2′-azino-bis (3-ethylbenzothiazoline-6-sulphonic acid) (ABTS, Life Science Technologies) was added. The reaction was stopped using 100 μl of ABTS peroxidase stop solution containing 5% sodium dodecyl sulfate (SDS) in water. The absorbance was read at an optical density of 405 nm using an ELISA reader (Molecular Devices). All experiments were performed in triplicate and confirmed in three independent experiments.
ELISA binding of anti-gp350 and anti-gH/gL to soluble gp350 and gH/gL proteins was performed. Soluble EBV gp350 and gH/gL proteins were used as the target antigen at 0.5 μg/ml. 1× phosphate buffered saline (PBS) was used as negative (not shown) control. Bound antibodies were detected using HRP-conjugated anti-mouse or anti-human IgG (1:2,000).

[3] = molecular target: T2, EBV gp350 stably expressed on CHO cells (Epstein-Barr virus, UniProt P03200); test: Epitope mapping by competitive cell binding assay with biotinylated mAbs; details: for competitive binding versus m72A1 and h72A1 (in words): biotinylated antibodies; for antigen binding competition with biotinylated m72A1 (in words) / % inhibition of biotinylated nAbs (biotinylated m72A1): biotinylated m72A1 1 μg/ml; for antigen binding competition with biotinylated m72A1 (in words): unlabeled mAbs 500-67.5 μg/ml; for % inhibition of biotinylated 54A1: 1 μg/ml biotinylated 54A1, 500 μg/ml unlabeled mAb; for % inhibition of biotinylated HB1: 1 μg/ml biotinylated HB1, 500 μg/ml unlabeled mAb; for % inhibition of biotinylated HB5: 1 μg/ml biotinylated HB5, 500 μg/ml unlabeled mAb; for % inhibition of biotinylated HB11: 1 μg/ml biotinylated HB11, 500 μg/ml unlabeled mAb; for % inhibition of biotinylated HB17: 1 μg/ml biotinylated HB17, 500 μg/ml unlabeled mAb; for % inhibition of biotinylated HB20: 1 μg/ml biotinylated HB20, 500 μg/ml unlabeled mAb; for % inhibition of biotinylated h72A1: 1 μg/ml biotinylated h72A1, 500 μg/ml unlabeled mAb; for % inhibition of biotinylated m72A1: cross-competition, 1 μg/ml biotinylated m72A1, 500 μg/ml unlabeled mAb
T2 construct: stably co-transfected with full-length pCAGGS-gp350/220 and pCI-puro vector; expressed in transfected cells; host or cells: CHO cells
Experimental: To evaluate conformation epitope mapping of the selected mAbs, competitive binding assays were conducted using biotinylated mAbs. A one-step antibody biotinylation kit (MACS Miltenyi Biotec) was used to biotinylate the mAbs. Approximately 1×10^5 CHO cells that stably expressed EBV gp350 were incubated for 2 hours with serially diluted ([…]) unlabeled competitor mAbs and non-specific anti-KSHV gH/gL 54A1 mAb. After being washed with PBS, the cells were incubated for 2 hours in the presence of 1 μg/ml biotinylated mAbs. To determine maximum binding, cells in which the biotinylated mAb was added in the absence of unlabeled mAbs were included in the assay. Cells were washed with PBS, followed by incubation for 1 hour with anti-biotin AF488 at a dilution of 1:500. After the final wash in PBS, cells were resuspended in 1% paraformaldehyde and analyzed by flow cytometry as described above. Percentage of inhibition was calculated as: 100−[(% fluorescent cells with competitor mAb/% fluorescent cells without competitor mAb)×100]. The complete prevention of binding of a biotinylated mAb by its unlabeled counterpart was used as a validation of the assay, as previously described (84).
At least seven unique CD21 binding epitopes on EBV gp350 have been predicted (Table 3).

T1 sequence (P03200 4-863): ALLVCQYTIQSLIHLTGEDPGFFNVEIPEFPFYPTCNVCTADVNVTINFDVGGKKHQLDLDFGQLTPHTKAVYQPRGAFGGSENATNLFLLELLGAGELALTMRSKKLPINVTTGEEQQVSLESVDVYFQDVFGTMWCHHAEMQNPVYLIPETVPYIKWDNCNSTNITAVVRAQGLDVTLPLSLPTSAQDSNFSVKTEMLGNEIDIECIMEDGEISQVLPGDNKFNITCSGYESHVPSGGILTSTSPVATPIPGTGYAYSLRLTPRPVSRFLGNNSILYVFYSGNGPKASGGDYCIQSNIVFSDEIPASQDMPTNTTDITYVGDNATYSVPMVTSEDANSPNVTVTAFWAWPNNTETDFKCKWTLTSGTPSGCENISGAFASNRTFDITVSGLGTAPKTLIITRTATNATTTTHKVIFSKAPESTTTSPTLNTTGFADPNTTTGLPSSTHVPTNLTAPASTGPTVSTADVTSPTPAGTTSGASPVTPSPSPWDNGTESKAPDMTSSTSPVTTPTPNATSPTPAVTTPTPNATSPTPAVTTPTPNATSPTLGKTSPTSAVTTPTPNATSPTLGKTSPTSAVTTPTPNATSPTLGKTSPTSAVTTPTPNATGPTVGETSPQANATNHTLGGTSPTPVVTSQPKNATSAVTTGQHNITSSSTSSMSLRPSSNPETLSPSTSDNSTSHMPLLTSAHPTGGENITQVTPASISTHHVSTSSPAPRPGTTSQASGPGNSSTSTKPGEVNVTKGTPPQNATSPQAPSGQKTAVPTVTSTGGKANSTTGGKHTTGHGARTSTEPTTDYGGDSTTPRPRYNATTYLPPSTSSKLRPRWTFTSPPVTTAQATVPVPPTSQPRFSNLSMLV
T2 sequence (P03200 whole entry): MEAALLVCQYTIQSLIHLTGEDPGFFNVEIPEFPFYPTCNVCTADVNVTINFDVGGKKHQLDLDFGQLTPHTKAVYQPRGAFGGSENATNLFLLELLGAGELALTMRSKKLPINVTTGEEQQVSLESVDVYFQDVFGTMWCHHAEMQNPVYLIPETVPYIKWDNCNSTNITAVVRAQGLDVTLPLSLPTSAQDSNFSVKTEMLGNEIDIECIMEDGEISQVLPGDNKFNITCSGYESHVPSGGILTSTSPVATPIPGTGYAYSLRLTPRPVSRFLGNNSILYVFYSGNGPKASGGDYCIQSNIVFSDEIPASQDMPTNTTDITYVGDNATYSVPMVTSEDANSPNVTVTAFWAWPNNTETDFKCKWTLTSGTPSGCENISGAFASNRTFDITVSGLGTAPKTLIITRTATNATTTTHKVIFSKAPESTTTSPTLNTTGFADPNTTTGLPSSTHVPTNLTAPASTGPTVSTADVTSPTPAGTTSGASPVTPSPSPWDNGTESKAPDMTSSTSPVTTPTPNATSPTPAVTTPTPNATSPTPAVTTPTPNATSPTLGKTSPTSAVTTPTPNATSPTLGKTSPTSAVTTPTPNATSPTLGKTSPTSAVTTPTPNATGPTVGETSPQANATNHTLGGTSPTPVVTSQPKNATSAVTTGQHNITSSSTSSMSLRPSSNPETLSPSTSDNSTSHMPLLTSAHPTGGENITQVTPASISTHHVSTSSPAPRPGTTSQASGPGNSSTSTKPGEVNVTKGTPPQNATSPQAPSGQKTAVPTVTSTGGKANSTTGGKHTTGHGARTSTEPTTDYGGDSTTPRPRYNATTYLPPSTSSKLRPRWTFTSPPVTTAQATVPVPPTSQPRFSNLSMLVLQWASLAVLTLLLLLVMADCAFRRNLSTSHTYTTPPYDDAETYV

| Molecule | binding to gp350 region AA 102-201 (linear peptides) [1] | ELISA binding to purified EBV gp350/220 ([2]; purified antibodies 10 μg/ml) | ELISA binding strength to gp350, compared with m72A1 / parental antibody ([2]; soluble gp350 0.5 μg/ml) | competitive binding versus m72A1 and h72A1 (in words) [3] | antigen binding competition with biotinylated m72A1 (in words) [3] | ELISA signal relative to negative control 54A1 ([2]; purified antibodies 10 μg/ml) | % inhibition of biotinylated 54A1 [3] [%] | % inhibition of biotinylated HB1 [3] [%] | % inhibition of biotinylated HB5 [3] [%] | % inhibition of biotinylated HB11 [3] [%] | % inhibition of biotinylated HB17 [3] [%] | % inhibition of biotinylated HB20 [3] [%] | % inhibition of biotinylated h72A1 [3] [%] | % inhibition of biotinylated m72A1 [3] [%] | % inhibition of biotinylated nAbs (biotinylated m72A1) ([3]; unlabeled mAb 67.5 μg/ml) [%] | % inhibition of biotinylated nAbs (biotinylated m72A1) ([3]; unlabeled mAb 125 μg/ml) [%] | % inhibition of biotinylated nAbs (biotinylated m72A1) ([3]; unlabeled mAb 250 μg/ml) [%] | % inhibition of biotinylated nAbs (biotinylated m72A1) ([3]; unlabeled mAb 500 μg/ml) [%] |
| --- | --- | --- | --- | --- | --- | --- | --- | --- | --- | --- | --- | --- | --- | --- | --- | --- | --- | --- |
| B1 | bound | + | equal to or greater than that of the positive control, m72A1 | bound targets that overlapped with those of both m72A1 and h72A1 | Antigen binding competition was observed |  |  |  |  |  |  |  |  |  |  |  |  |  |
| B2 | bound | + |  | bound targets that overlapped with those of both m72A1 and h72A1 | Antigen binding competition was observed |  |  |  |  |  |  |  |  |  |  |  |  |  |
| B3 | bound | + |  | only partial binding to the overlapping targets | Antigen binding competition was observed |  |  |  |  |  |  |  |  |  |  |  |  |  |
| B4 | bound | + |  |  |  | greater than two times those of anti-KSHV gH/gL mAb 54A1 | 1 | 82 | 97 | 90 | 37 | 31 | 98 | 98 | 97 | 94 | 93 | 91 |
| B5 | bound |  |  |  | Antigen binding competition was observed |  | 0 | 87 | 97 | 79 | 31 | 26 | 98 | 98 | 89 | 93 | 95 | 98 |
